Experimental findings from the supplement of paper PMC7877785 are described below.

The data set can be described thus: self-splicing fitness, log relative to wild type (ln ratio); higher = more splicing; Tetrahymena group I intron in knt gene, E. coli kanamycin selection, DiMSum; sequences stand for … in CUCUCU…GGAGGGAAAAGUUAUCAGGCAUGCACCUGGUAGCUAGUCUUUAAACCAAUAGAUUGCAUCGGUUUAAAAGGCAAGACCGUCAAAUUGCGGGAAAGGGGUCAACAGCCGUUCAGUACCAAGUCUCAGGGGAAACUUUGAGAUGGCCUUGCAAAGGGUAUGGUAAUAAGCUGACGGACAUGGUCCUAACCACGCAGCCAAGUCCUAAGUCAACAGAUCUUCUGUUGAUAUGGAUGCAGUUCACAGACUAAAUGUCGGUCGGGGAAGAUGUAUUCUUCUCAUAAGAUAUAGUCGGACCUCUCCUUAAUGGGAGCUAGCGGAUGAAGUGAUGCAACACUGGAGCCGCUGGGAACUAAUUUGUAUGCGAAAGUAUAUUGAUUAGUUUUGGAGUACUCGUGGUCG
The essentials: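 A randomised library covering all eight P1ex-region intron nucleotides was built with the intron in the knt kanamycin-resistance gene on pET-22b(+) and held in E. coli BL21(DE3). Cells were grown overnight at 37°C or 30°C on LB agar, with or without 25 μg/mL kanamycin, plus 100 μg/mL carbenicillin, 50 μM IPTG and 0.2% rhamnose, and pooled colonies were amplicon-sequenced on an Illumina HiSeq 2500. DiMSum fitness is the error-weighted combination of wild-type-normalised replicate fold changes, kanamycin versus none.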

± gives the uncertainty stated by the source.

Take CAUGAGCAAUAUUACGUGGC: the “self-splicing fitness (ln)” value is, setting by setting: (30 °C) -3.55 ± 0.25; (37 °C) -2.46 ± 0.24.

Consider AAUCAGCAAUAUUACGCUGU, for which the “self-splicing fitness (ln)” value runs as follows: (30 °C) -3.28 ± 0.14; (37 °C) -1.59 ± 0.11.

Turning to UUUCAGCAAUAUUACGAGGU, the “self-splicing fitness (ln)” value reads like this: (30 °C) -3.53 ± 0.2; (37 °C) -2.78 ± 0.24.

As for AACCAGCAAUAUUACGGGAA, the “self-splicing fitness (ln)” value (30 °C) is -1.76 ± 0.073 and the “self-splicing fitness (ln)” value (37 °C) was -1.01 ± 0.065.

For UCCUAGCAAUAUUACGUUUA, the “self-splicing fitness (ln)” value runs as follows: (30 °C) -2.15 ± 0.18; (37 °C) -2.54 ± 0.23.

On to CCGCAGCAAUAUUACGCCCG, for which the “self-splicing fitness (ln)” value by setting is: (30 °C) -0.205 ± 0.11; (37 °C) 0.732 ± 0.16.

As to AGGAAGCAAUAUUACGAAGA, the “self-splicing fitness (ln)” value is, setting by setting: (30 °C) -2.9 ± 0.34; (37 °C) -1.61 ± 0.32.

With GCGCAGCAAUAUUACGCAGC, the “self-splicing fitness (ln)” value (37 °C) is -1.32 ± 0.33.

For the sequence UAAGAGCAAUAUUACGGCUC, the “self-splicing fitness (ln)” value is -1.82 ± 0.26 (30 °C) and -1.32 ± 0.32 (37 °C).

Turning to UGCGAGCAAUAUUACGACGG, the “self-splicing fitness (ln)” value reads like this: (30 °C) -1.41 ± 0.15; (37 °C) -0.347 ± 0.16.

For the sequence UCCCAGCAAUAUUACGAGAG, the “self-splicing fitness (ln)” value reads like this: (30 °C) -3.41 ± 0.29; (37 °C) -2.14 ± 0.21.

Consider GCCUAGCAAUAUUACGAUUU, for which the “self-splicing fitness (ln)” value was -1.98 ± 0.092 (30 °C) and -1.34 ± 0.097 (37 °C).

ACAGAGCAAUAUUACGGGAG: the “self-splicing fitness (ln)” value is, setting by setting: (30 °C) -3.51 ± 0.28; (37 °C) -1.62 ± 0.21.

On to UCCUAGCAAUAUUACGGCUU, for which the “self-splicing fitness (ln)” value (30 °C) is -3.41 ± 0.15 and the “self-splicing fitness (ln)” value (37 °C) was -2.47 ± 0.2.

With CUACAGCAAUAUUACGUCUC, the “self-splicing fitness (ln)” value (30 °C) is -3.38 ± 0.18 and the “self-splicing fitness (ln)” value (37 °C) was -2.55 ± 0.3.

In the case of GCAUAGCAAUAUUACGCCUC, the “self-splicing fitness (ln)” value was -1.01 ± 0.23 (30 °C) and -0.756 ± 0.28 (37 °C).

Take CCCCAGCAAUAUUACGUCGU: the “self-splicing fitness (ln)” value reads like this: (30 °C) -3.19 ± 0.12; (37 °C) -2.05 ± 0.12.

For the sequence GCCAAGCAAUAUUACGGUUG, the “self-splicing fitness (ln)” value is -3.23 ± 0.099 (30 °C) and -2.54 ± 0.14 (37 °C).

With CUACAGCAAUAUUACGAGCC, the “self-splicing fitness (ln)” value runs as follows: (30 °C) -2.24 ± 0.24; (37 °C) -1.88 ± 0.31.

UUUGAGCAAUAUUACGUGUC: the “self-splicing fitness (ln)” value is, setting by setting: (30 °C) -4.05 ± 0.42; (37 °C) -2.79 ± 0.27.

For CGAUAGCAAUAUUACGGACU, the “self-splicing fitness (ln)” value was -1.28 ± 0.095 (30 °C) and -0.496 ± 0.11 (37 °C).

Consider UCCUAGCAAUAUUACGUUGC, for which the “self-splicing fitness (ln)” value (30 °C) was -3.64 ± 0.16 and the “self-splicing fitness (ln)” value (37 °C) is -2.74 ± 0.19.

With AACUAGCAAUAUUACGAGUA, the “self-splicing fitness (ln)” value (30 °C) is -0.62 ± 0.07 and the “self-splicing fitness (ln)” value (37 °C) was -0.322 ± 0.083.

Regarding CAACAGCAAUAUUACGUGAU, the “self-splicing fitness (ln)” value runs as follows: (30 °C) -2.64 ± 0.075; (37 °C) -2.19 ± 0.1.

With UAUCAGCAAUAUUACGGAUC, the “self-splicing fitness (ln)” value reads like this: (30 °C) -0.475 ± 0.11; (37 °C) -0.265 ± 0.13.

With GAAUAGCAAUAUUACGACCG, the “self-splicing fitness (ln)” value is -1.03 ± 0.16 (30 °C) and -0.447 ± 0.2 (37 °C).

As to GCGGAGCAAUAUUACGAGGA, the “self-splicing fitness (ln)” value was -2.26 ± 0.47 (30 °C) and -2.66 ± 0.37 (37 °C).

As to GAGUAGCAAUAUUACGAACC, the “self-splicing fitness (ln)” value (30 °C) was -1.17 ± 0.12 and the “self-splicing fitness (ln)” value (37 °C) was -0.433 ± 0.14.

With AUUUAGCAAUAUUACGUUAA, the “self-splicing fitness (ln)” value (30 °C) was -2.52 ± 0.27 and the “self-splicing fitness (ln)” value (37 °C) was -2.56 ± 0.34.

As for CUUCAGCAAUAUUACGCCUG, the “self-splicing fitness (ln)” value reads like this: (30 °C) -0.748 ± 0.074; (37 °C) 0.268 ± 0.1.

Regarding ACGGAGCAAUAUUACGGAGG, the “self-splicing fitness (ln)” value runs as follows: (30 °C) -4.47 ± 0.46; (37 °C) -1.69 ± 0.19.

On to UGCUAGCAAUAUUACGGUCA, for which the “self-splicing fitness (ln)” value is 0.0813 ± 0.11 (30 °C) and 0.529 ± 0.13 (37 °C).

As to UAGUAGCAAUAUUACGCUGA, the “self-splicing fitness (ln)” value is, setting by setting: (30 °C) -2.25 ± 0.39; (37 °C) -0.637 ± 0.11.

Regarding UGACAGCAAUAUUACGAGAA, under “37 °C”, the “self-splicing fitness (ln)” value was -2.33 ± 0.29.

As to CCCUAGCAAUAUUACGCCGA, the “self-splicing fitness (ln)” value (30 °C) was -3.85 ± 0.33 and the “self-splicing fitness (ln)” value (37 °C) was -2.31 ± 0.3.

For the sequence CGGAAGCAAUAUUACGUAGG, the “self-splicing fitness (ln)” value by setting is: (30 °C) -0.48 ± 0.078; (37 °C) -1.38 ± 0.12.

On to UGUGAGCAAUAUUACGCCGG, for which the “self-splicing fitness (ln)” value reads like this: (30 °C) -3.85 ± 0.25; (37 °C) -1.98 ± 0.33.

For the sequence UUCUAGCAAUAUUACGGCGC, the “self-splicing fitness (ln)” value by setting is: (30 °C) -2.84 ± 0.25; (37 °C) -2.7 ± 0.24.
